Experimental data reported in patent publication US20190071490A1 (BETH ISRAEL DEACONESS MEDICAL CENTER, published 2019).
Substitutions are numbered along the chain they refer to.

B1: G1 variant M1 Fab (Fab, V domains shown)
VH: EVQLVESGGGLVQPGGSLRLSCAASGFTFSNYWISWVRQAPGKGLEWVAEIRSESDASATHYAEAVKGRFTISRDNAKNSLYLQMNSLRAEDTAVYYCLLYFDYGLAIQNYWGQGTLVTVSS
VL: EIVLTQSPATLSLSPGERATLSCKASKRVTTYVSWYQQKPGQAPRLLIYGASNRYLGIPARFSGSGSGTDFTLTISSLEPEDFAVYYCSQSYNYPYTFGQGTKLEIK
notes: Fab; constant domains as m1
B2: G1 variant M22 Fab (Fab, V domains shown)
VH: B1 VH with L99T, L100A
VL: B1 VL with R28W
notes: Fab; constant domains as m1
B3: G1 variant M4 Fab (Fab, V domains shown)
VH: B1 VH with L99A, L100V
VL: B1 VL
notes: Fab; constant domains as m1
B4: G1 variant M7 Fab (Fab, V domains shown)
VH: B1 VH with L99N, L100C
VL: B1 VL
notes: Fab; constant domains as m1
B5: G1 variant M13 Fab (Fab, V domains shown)
VH: B1 VH with L99T, L100G
VL: B1 VL
notes: Fab; constant domains as m1
B6: G1 variant M12 Fab (Fab, V domains shown)
VH: B1 VH with L99S, L100V
VL: B1 VL
notes: Fab; constant domains as m1
B7: G1 variant M30 Fab (Fab, V domains shown)
VH: B1 VH with E54K, A57E, L99T, L100V
VL: B1 VL with R28N, T30G
notes: Fab; constant domains as m1
B8: G1 variant M20 Fab (Fab, V domains shown)
VH: B1 VH with L99R
VL: B1 VL with R28W
notes: Fab; constant domains as m1
B9: G1 variant M18 Fab (Fab, V domains shown)
VH: B1 VH with L99V, L100G
VL: B1 VL
notes: Fab; constant domains as m1
B10: G1 variant M8 Fab (Fab, V domains shown)
VH: B1 VH with L99N, L100G
VL: B1 VL
notes: Fab; constant domains as m1
B11: G1 variant M6 Fab (Fab, V domains shown)
VH: B1 VH with L99N, L100A
VL: B1 VL
notes: Fab; constant domains as m1
B12: G1 variant M32 Fab (Fab, V domains shown)
VH: B1 VH with E54K, A57H, L99T, L100V
VL: B1 VL with R28N, T30G
notes: Fab; constant domains as m1
B13: G1 variant M17 Fab (Fab, V domains shown)
VH: B1 VH with L99T, L100V
VL: B1 VL
notes: Fab; constant domains as m1
B14: G1 variant M27 Fab (Fab, V domains shown)
VH: B1 VH with L99T, L100V
VL: B1 VL with R28N, T30A
notes: Fab; constant domains as m1
B15: G1 variant M24 Fab (Fab, V domains shown)
VH: B1 VH with L99T, L100V
VL: B1 VL with R28L
notes: Fab; constant domains as m1
B16: G1 variant M21 Fab (Fab, V domains shown)
VH: B1 VH with L99S, L100A
VL: B1 VL with R28W
notes: Fab; constant domains as m1
B17: G1 variant M3 Fab (Fab, V domains shown)
VH: B1 VH with L99A, L100S
VL: B1 VL
notes: Fab; constant domains as m1
B18: G1 variant M16 Fab (Fab, V domains shown)
VH: B1 VH with L99T, L100S
VL: B1 VL
notes: Fab; constant domains as m1
B19: G1 variant M26 Fab (Fab, V domains shown)
VH: B1 VH with A57G, L99T, L100V
VL: B1 VL with R28N
notes: Fab; constant domains as m1
B20: G1 variant M23 Fab (Fab, V domains shown)
VH: B1 VH with L99T, L100V
VL: B1 VL with R28G
notes: Fab; constant domains as m1
B21: G1 variant M33 Fab (Fab, V domains shown)
VH: B1 VH with E54K, A57N, S58G, L99T, L100V
VL: B1 VL with R28N, T30G
notes: Fab; constant domains as m1
B22: G1 variant M10 Fab (Fab, V domains shown)
VH: B1 VH with L99S, L100S
VL: B1 VL
notes: Fab; constant domains as m1
B23: G1 variant M28 Fab (Fab, V domains shown)
VH: B1 VH with E54R, A57N, L99T, L100V
VL: B1 VL with R28N, T30D
notes: Fab; constant domains as m1
B24: G1 variant M11 Fab (Fab, V domains shown)
VH: B1 VH with L99S, L100T
VL: B1 VL
notes: Fab; constant domains as m1
B25: G1 variant M31 Fab (Fab, V domains shown)
VH: B1 VH with E54K, A57G, L99T, L100V
VL: B1 VL with R28N, T30G
notes: Fab; constant domains as m1
B26: G1 variant M29 Fab (Fab, V domains shown)
VH: B1 VH with L99T, L100V
VL: B1 VL with R28N, T30G
notes: Fab; constant domains as m1
B27: G1 variant M2 Fab (Fab, V domains shown)
VH: B1 VH with L99A, L100R
VL: B1 VL
notes: Fab; constant domains as m1
B28: G1 variant M15 Fab (Fab, V domains shown)
VH: B1 VH with L99T, L100P
VL: B1 VL
notes: Fab; constant domains as m1
B29: G1 variant M5 Fab (Fab, V domains shown)
VH: B1 VH with L99A, L100Y
VL: B1 VL
notes: Fab; constant domains as m1
B30: G1 variant M25 Fab (Fab, V domains shown)
VH: B1 VH with L99T, L100V
VL: B1 VL with R28N
notes: Fab; constant domains as m1
B31: G1 variant M9 Fab (Fab, V domains shown)
VH: B1 VH with L99N, L100Y
VL: B1 VL
notes: Fab; constant domains as m1
B32: G1 variant M19 Fab (Fab, V domains shown)
VH: B1 VH with L99V, L100R
VL: B1 VL
notes: Fab; constant domains as m1
B33: G1 variant M14 Fab (Fab, V domains shown)
VH: B1 VH with L99T, L100K
VL: B1 VL
notes: Fab; constant domains as m1

Target: T1, rat α-CGRP (1-37) (rat, C-terminal amide; N-terminal biotin when captured on the SA chip)
T1 construct: also called rat α (1-37); α-rat
T1 peptide: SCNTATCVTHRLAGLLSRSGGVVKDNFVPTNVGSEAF
Assay: Biacore, 37°C, Fab over CGRP on SA chip
Description: (§1) Biacore assay for affinity determination. […] All Biacore assays were conducted in HBS-EP running buffer (10 mM HEPES pH 7.4, 150 mM NaCl, 3 mM EDTA, 0.005% v/v polysorbate P20). CGRP surfaces were prepared by diluting the N-biotinylated CGRP to a concentration of less than 0.001 mg/mL into HBS-EP buffer and injecting it across the SA sensor chip using variable contact times. […] Samples were typically injected for 1 minute at 100 μL/min and dissociation times of at least 10 minutes were allowed. […] An entire titration series (typically generated in duplicate) was fit globally to a 1:1 Langmuir binding model using the BIAevaluation program. This returned a unique pair of association and dissociation kinetic rate constants (respectively, kₒₙ and koff) for each binding interaction, whose ratio gave the equilibrium dissociation constant (KD=koff/kₒₙ). […]

| Binder | koff [s⁻¹] | Kd [nM] |
| --- | --- | --- |
| B1 | 0.0011 |  |
| B2 | 0.0011 | 61.1 |
| B3 | 0.00152 | 84.4 |
| B4 | 0.000918 | 51 |
| B5 | 0.00184 | 102 |
| B6 | 0.00194 | 108 |
| B7 | 0.00638 | 354 |
| B8 | 0.00144 | 80 |
| B9 | 0.00122 | 67.8 |
| B10 | 0.000745 | 41.4 |
| B11 | 0.000784 | 43.6 |
| B12 | 0.00296 | 164 |
| B13 | 0.00206 | 114 |
| B14 | 0.00341 | 189 |
| B15 | 0.00104 | 57.8 |
| B16 | 0.000695 | 15.2 |
| B17 | 0.002 | 61 |
| B18 | 0.000996 | 55.3 |
| B19 | 0.000924 | 51.3 |
| B20 | 0.000799 | 44.4 |
| B21 | 0.00922 | 512 |
| B22 | 0.00151 | 83.9 |
| B23 | 0.00125 | 69.4 |
| B24 | 0.00483 | 268 |
| B25 | 0.00361 | 201 |
| B26 | 0.00359 | 199 |
| B27 | 0.0026 | 58 |
| B28 | 0.00115 | 63.9 |
| B29 | 0.000735 | 40.8 |
| B30 | 0.0014 | 76 |

Target: T2, human α-CGRP 1-37 (WT) (human, C-terminal amide; N-terminal biotin when captured on the SA chip; 125I-labelled in the radioligand assay)
T2 construct: also called α-human
T2 peptide: T1 peptide with S1A, N3D, D25N, E35K
Assay: Biacore, 37°C, Fab over CGRP on SA chip
Description: as §1

| Binder | koff [s⁻¹] | Kd [nM] |
| --- | --- | --- |
| B1 | 0.000173 |  |
| B2 | 0.000116 | 0.73 |
| B3 | 6.95e-05 | 0.43 |
| B4 | 0.000243 | 1.52 |
| B5 | 0.000186 | 1.16 |
| B6 | 0.000101 | 0.63 |
| B7 | 0.00059 | 3.69 |
| B8 | 0.000136 | 0.85 |
| B9 | 7.03e-05 | 0.44 |
| B10 | 9.2e-05 | 0.58 |
| B11 | 0.000133 | 0.83 |
| B12 | 0.000271 | 1.69 |
| B13 | 0.000185 | 1.16 |
| B14 | 0.000357 | 2.23 |
| B15 | 0.000148 | 0.93 |
| B16 | 0.000142 | 1.23 |
| B17 | 0.00021 | 1.7 |

| Binder | koff [s⁻¹] | Kd [nM] |
| --- | --- | --- |
| B18 | 0.000165 | 1.03 |
| B19 | 0.000148 | 0.93 |
| B31 | ≤ 1e-05 | ≤ 0.06 |
| B20 | 0.00013 | 0.81 |
| B21 | 0.00075 | 4.69 |
| B22 | 0.000173 | 1.08 |
| B32 | ≤ 1e-05 | ≤ 0.06 |
| B23 | 9.96e-05 | 0.62 |
| B24 | 0.000283 | 1.77 |
| B25 | 0.000347 | 2.17 |
| B26 | 0.00038 | 2.38 |
| B27 | 0.00031 | 3 |
| B28 | 1.58e-05 | 0.1 |
| B29 | 3.22e-05 | 0.2 |
| B30 | 0.00014 | 1.3 |
| B33 | ≤ 1e-05 | ≤ 0.06 |
